± gives the uncertainty stated by the source.
Assay: self-splicing fitness, log relative to wild type (ln ratio); higher = more splicing; Tetrahymena group I intron in knt gene, E. coli kanamycin selection, DiMSum; sequences stand for … in CUCUCU…GGAGGGAAAAGUUAUCAGGCAUGCACCUGGUAGCUAGUCUUUAAACCAAUAGAUUGCAUCGGUUUAAAAGGCAAGACCGUCAAAUUGCGGGAAAGGGGUCAACAGCCGUUCAGUACCAAGUCUCAGGGGAAACUUUGAGAUGGCCUUGCAAAGGGUAUGGUAAUAAGCUGACGGACAUGGUCCUAACCACGCAGCCAAGUCCUAAGUCAACAGAUCUUCUGUUGAUAUGGAUGCAGUUCACAGACUAAAUGUCGGUCGGGGAAGAUGUAUUCUUCUCAUAAGAUAUAGUCGGACCUCUCCUUAAUGGGAGCUAGCGGAUGAAGUGAUGCAACACUGGAGCCGCUGGGAACUAAUUUGUAUGCGAAAGUAUAUUGAUUAGUUUUGGAGUACUCGUGGUCG
How it was run: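 Library with all eight P1ex-region intron nucleotides randomised, intron inside the knt kanamycin-resistance gene on pET-22b(+), in E. coli BL21(DE3). Cells grew overnight at 37°C or 30°C on LB agar with or without 25 μg/mL kanamycin (plus 100 μg/mL carbenicillin, 50 μM IPTG, 0.2% rhamnose), in six replicate transformations. Pooled colonies were amplicon-sequenced on Illumina HiSeq 2500. DiMSum fitness is the error-weighted combination of wild-type-normalised replicate fold changes, kanamycin versus none.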

Row | Sequence | self-splicing fitness (ln) (30 °C) | self-splicing fitness (ln) (37 °C)
1 | AACUAGCAAUAUUACGGUCA | -0.313 ± 0.074 | 0.442 ± 0.093
2 | CAUGAGCAAUAUUACGGAUA | -3.32 ± 0.22 | -1.68 ± 0.24
3 | GAAAAGCAAUAUUACGCGUU | -2.98 ± 0.13 | -1.18 ± 0.12
4 | AGGAAGCAAUAUUACGAUUA | -1.47 ± 0.08 | -1.21 ± 0.069
5 | GUACAGCAAUAUUACGAAGU | -3.32 ± 0.17 | -1.67 ± 0.18
6 | UCAUAGCAAUAUUACGUAAC | -3.57 ± 0.37 | -1.6 ± 0.31
7 | AUAAAGCAAUAUUACGUAGG | -2.93 ± 0.12 | -1.51 ± 0.15
8 | ACCGAGCAAUAUUACGGUAC | -2.82 ± 0.3 | -2.46 ± 0.33
9 | AAUCAGCAAUAUUACGGUGG | -1.14 ± 0.056 | -0.718 ± 0.076
10 | UUGAAGCAAUAUUACGAUUG | -1.35 ± 0.088 | 0.272 ± 0.11
11 | GUGAAGCAAUAUUACGUCCU | -0.476 ± 0.12 | 0.382 ± 0.18
12 | GAUUAGCAAUAUUACGGAGU | -2.77 ± 0.19 | -2.5 ± 0.23
13 | UAUGAGCAAUAUUACGUCAC | -4.15 ± 0.46 | -2.26 ± 0.49
14 | UAUAAGCAAUAUUACGUUAU | -2.58 ± 0.19 | -2.3 ± 0.28
15 | AGGAAGCAAUAUUACGCUAA | -1.19 ± 0.13 | -1.89 ± 0.27
16 | GAGUAGCAAUAUUACGACUA | 0.106 ± 0.14 | -0.537 ± 0.13
17 | GGCGAGCAAUAUUACGGUAC | -2.08 ± 0.17 | -1.98 ± 0.19
18 | UGAAAGCAAUAUUACGAUAA | -0.879 ± 0.11 | -0.129 ± 0.13
19 | UCCAAGCAAUAUUACGUGAC | -3.7 ± 0.3 | -3.17 ± 0.35
20 | GAAGAGCAAUAUUACGUAGU | -2.69 ± 0.13 | -2.88 ± 0.2
21 | CUGUAGCAAUAUUACGGGGC | -4.95 ± 0.36 | -2.14 ± 0.19
22 | CGUAAGCAAUAUUACGUGGA | -2.93 ± 0.2 | -2.44 ± 0.24
23 | ACGAAGCAAUAUUACGGUGG | -3.93 ± 0.15 | -2.56 ± 0.23
24 | GACAAGCAAUAUUACGCUUC | -3.75 ± 0.26 | -2.25 ± 0.25

Row | Sequence | self-splicing fitness (ln) (30 °C) | self-splicing fitness (ln) (37 °C)
25 | GUGGAGCAAUAUUACGACCA |  | -1.24 ± 0.35
26 | GGGGAGCAAUAUUACGCUAU | -3.31 ± 0.36 | -1.88 ± 0.38
27 | AGGGAGCAAUAUUACGCAGU | -2.41 ± 0.47 | -1.44 ± 0.33
28 | UUGAAGCAAUAUUACGCACA | -0.575 ± 0.11 | 0.157 ± 0.13
29 | GCCAAGCAAUAUUACGGAAC | -1.73 ± 0.18 | -0.77 ± 0.18
30 | AAAAAGCAAUAUUACGGCGC | -0.402 ± 0.093 | 0.559 ± 0.13
31 | UCGAAGCAAUAUUACGUCGC | -1.76 ± 0.14 | -1.86 ± 0.19
32 | GAUUAGCAAUAUUACGGAGA | -2.78 ± 0.25 | -2.19 ± 0.24
33 | CUUGAGCAAUAUUACGCGUU | -4.07 ± 0.39 | -2.14 ± 0.23
34 | GCCCAGCAAUAUUACGCCCU | -0.933 ± 0.12 | -0.685 ± 0.16
35 | AGUUAGCAAUAUUACGGGCC | -2.24 ± 0.21 | -1.61 ± 0.18
36 | UUAAAGCAAUAUUACGUCCU | -0.682 ± 0.081 | -0.281 ± 0.096
37 | GGCGAGCAAUAUUACGCUGU | -2.63 ± 0.22 | -2.66 ± 0.27
38 | CUACAGCAAUAUUACGUUUC | -3.69 ± 0.16 | -2.7 ± 0.21
39 | UUUCAGCAAUAUUACGAUGC | -3.68 ± 0.28 | -2.01 ± 0.29
40 | UCAGAGCAAUAUUACGCUGC |  | -0.708 ± 0.32
41 | AGACAGCAAUAUUACGUGUC | -3.93 ± 0.21 | -3.7 ± 0.2
42 | AGUCAGCAAUAUUACGAAUU | -0.652 ± 0.064 | -0.509 ± 0.076
43 | UUACAGCAAUAUUACGCACA | -0.783 ± 0.12 | 0.168 ± 0.12
44 | AUAUAGCAAUAUUACGAAAA | -2.4 ± 0.41 | -1.72 ± 0.34
45 | AAUGAGCAAUAUUACGUCGU | -2.77 ± 0.082 | -1.18 ± 0.086
46 | GCAGAGCAAUAUUACGCACA | -2.09 ± 0.24 | 
47 | CUUUAGCAAUAUUACGCUUA | -3.33 ± 0.37 | -3.35 ± 0.4
48 | CGCUAGCAAUAUUACGGUGG | -1.71 ± 0.12 | -2.3 ± 0.17

Reference: the supplement of paper PMC7877785
